Test results published in the Human Domainome abundance scans (Beltran et al. 2025).
± gives the uncertainty stated by the source.

B1: SWI/SNF-related matrix-associated actin-dependent regulator of chromatin subfamily B member 1, residues 181 to 248; numbered along this chain, Q12824 (parent)
chain: SQPEVLVPIRLDMEIDGQKLRDAFTWNMNEKLMTPEMFSEILCDDLDLNPLTFVPAIASAIRQQIESY

Variants of: B1
Test: abundance fitness (aPCA) (normalised: wild type 0, dead -1); higher = more abundant; growth selection in yeast, the domain comes from the species named
Conditions: Homo sapiens

Abundance fitness, by site and new letter:
D44: H 0.258 ± 0.17, I -0.259 ± 0.17, G -0.276 ± 0.16, S 0.043 ± 0.1, A 0.271 ± 0.22, L -0.251 ± 0.11, Q -0.028 ± 0.11, T -0.467 ± 0.28, N -0.403 ± 0.47, V -0.008 ± 0.27, E 0.309 ± 0.22, M -0.473 ± 0.26, K 0.177 ± 0.17
P55: T 0.479 ± 0.38
L48: F -0.656 ± 0.17, R -0.989 ± 0.21, I -0.147 ± 0.14, H -0.722 ± 0.18, V -0.554 ± 0.071, W -0.888 ± 0.18, A -0.857 ± 0.1, Y -0.649 ± 0.21, N -0.664 ± 0.17, D -0.785 ± 0.2, S -0.659 ± 0.072, G -0.66 ± 0.077, C -0.374 ± 0.079, E -0.678 ± 0.16, P -0.873 ± 0.18, K -0.651 ± 0.12
M33: K -0.325 ± 0.091, T -0.279 ± 0.21, F -0.542 ± 0.26, E -0.794 ± 0.15, G -0.797 ± 0.1, Y -0.421 ± 0.17, A -0.563 ± 0.091, S -0.743 ± 0.14, V -0.248 ± 0.052, H -0.293 ± 0.12, R -0.418 ± 0.046, I -0.104 ± 0.12, Q -0.191 ± 0.076, P -0.113 ± 0.15, L 0.01 ± 0.039, W -0.488 ± 0.068
A60: F -0.725 ± 0.17, E 0.085 ± 0.089, C -0.068 ± 0.082, K -0.214 ± 0.068, H -0.311 ± 0.066, G -0.528 ± 0.078
V54: A -0.119 ± 0.44, S -0.324 ± 0.14, I -0.241 ± 0.077, M -0.335 ± 0.28, F -0.739 ± 0.32, P -0.593 ± 0.23, L -0.684 ± 0.21, G 0.144 ± 0.14, R -0.22 ± 0.16
P50: K 0.138 ± 0.053, V -0.772 ± 0.085, Q -0.508 ± 0.15, D -0.986 ± 0.2, C -0.751 ± 0.49, T -0.364 ± 0.093, G -0.77 ± 0.047, E -0.818 ± 0.13, S -0.389 ± 0.046, A -0.292 ± 0.06, W -0.845 ± 0.14, I -1 ± 0.35, F -0.285 ± 0.14, M -1.03 ± 0.43, N -0.567 ± 0.1, L -0.933 ± 0.17, Y -0.714 ± 0.15, R 0.021 ± 0.045, H -0.039 ± 0.082
F53: L -0.813 ± 0.34
L32: C -0.075 ± 0.075, K 0.176 ± 0.058, W -0.113 ± 0.061, P -0.821 ± 0.21, A 0.056 ± 0.036, G 0.061 ± 0.03, V 0.068 ± 0.031, S 0.059 ± 0.036, Y 0.061 ± 0.058, Q 0.099 ± 0.047, H 0.146 ± 0.053, M 0.085 ± 0.046, D 0.181 ± 0.05, T 0.134 ± 0.055, N 0.207 ± 0.1, E 0.207 ± 0.045, F 0.09 ± 0.079
L51: D 0.125 ± 0.18, T -0.174 ± 0.12, A 0.041 ± 0.088, V 0.042 ± 0.11, S 0.044 ± 0.065, H 0.002 ± 0.083, E 0.185 ± 0.089
I57: H -1.03 ± 0.2, K -0.931 ± 0.14, L -0.76 ± 0.068, W -0.615 ± 0.2, Q -0.779 ± 0.18, F -0.957 ± 0.15, E -0.749 ± 0.21, Y -0.713 ± 0.19, T -0.855 ± 0.14, P -1.04 ± 0.28, V -0.177 ± 0.056, G -0.781 ± 0.1, A -0.781 ± 0.13, S -0.802 ± 0.096, N -0.542 ± 0.13, R -0.912 ± 0.11, M -0.417 ± 0.068
M28: L 0.087 ± 0.16, T -0.277 ± 0.24, V -0.086 ± 0.14, P -0.5 ± 0.21
A56: I -0.375 ± 0.11, N -0.654 ± 0.19, D -0.552 ± 0.11, T -0.566 ± 0.11, K -0.041 ± 0.13, V -0.319 ± 0.052, P -0.564 ± 0.16, H -0.123 ± 0.081, Q -0.095 ± 0.12, M -0.416 ± 0.11, G -0.523 ± 0.049, Y -0.421 ± 0.092, E -0.134 ± 0.049, F -0.623 ± 0.16, W -0.628 ± 0.086, C -0.384 ± 0.066, S -0.278 ± 0.03
E30: A -0.619 ± 0.34, W 0.023 ± 0.32, G -0.617 ± 0.32
N29: D -0.212 ± 0.24, V -0.727 ± 0.21, S -0.136 ± 0.28, L -0.939 ± 0.25, R -0.273 ± 0.23, K -0.286 ± 0.096, F -0.736 ± 0.28, Q -0.476 ± 0.45, G -0.244 ± 0.087
L46: V -0.746 ± 0.12, F -0.091 ± 0.09, M 0.05 ± 0.21, P -1.08 ± 0.23, G -0.37 ± 0.12, K 0.211 ± 0.075, S -0.694 ± 0.1, Q -0.162 ± 0.064, W 0.017 ± 0.069, A -0.125 ± 0.051, Y -0.038 ± 0.099, N -0.271 ± 0.17, T -0.954 ± 0.24, R 0.161 ± 0.046, C -0.231 ± 0.2, E -0.204 ± 0.13, H 0.318 ± 0.14
D45: G -0.185 ± 0.26, R 0.193 ± 0.15, Q -0.284 ± 0.48, H -0.143 ± 0.39
F38: L -0.284 ± 0.17, Y -0.509 ± 0.49, S -0.809 ± 0.24, M -0.637 ± 0.48, W -0.235 ± 0.21, K 0.132 ± 0.38, T -0.722 ± 0.28, C -0.675 ± 0.24, R 0.11 ± 0.14
S39: P -0.685 ± 0.38, R -0.797 ± 0.36
L42: M 0.117 ± 0.064, P -0.33 ± 0.1, Y -0.071 ± 0.12, F -0.128 ± 0.21, V -0.111 ± 0.061, R -0.211 ± 0.045, I -0.005 ± 0.082, H -0.636 ± 0.12, S -0.69 ± 0.14, K -0.106 ± 0.072, E -0.978 ± 0.11, N -0.549 ± 0.11, C -0.846 ± 0.2, G -0.909 ± 0.1, W -0.883 ± 0.34, A -0.721 ± 0.1, D -0.869 ± 0.19, T -0.854 ± 0.13
T52: V -0.005 ± 0.095, S -0.14 ± 0.17, H -0.104 ± 0.22, K 0.189 ± 0.071, G -0.634 ± 0.14, Q -0.215 ± 0.1, C -0.31 ± 0.24, R -0.21 ± 0.057, F -0.412 ± 0.26, D -0.168 ± 0.31, I -0.417 ± 0.4, L -0.163 ± 0.14
N27: A -0.754 ± 0.17, R -0.684 ± 0.14, D 0.165 ± 0.23, C -0.923 ± 0.31, E -0.822 ± 0.45, S -0.582 ± 0.31, Q -0.685 ± 0.14, Y -0.831 ± 0.28, H -0.723 ± 0.17, G -0.622 ± 0.22, W -0.909 ± 0.25, M -0.988 ± 0.36, T -0.552 ± 0.3, P -0.512 ± 0.15
D47: Y -0.401 ± 0.12, K 0.093 ± 0.063, C -0.305 ± 0.057, P -0.799 ± 0.16, N -0.107 ± 0.069, G 0.053 ± 0.038, W -0.507 ± 0.12, V -0.542 ± 0.073, T -0.37 ± 0.059, L -0.425 ± 0.056, M -0.265 ± 0.05, H -0.018 ± 0.053, S -0.101 ± 0.048
A58: S -0.072 ± 0.17
T34: Q -0.881 ± 0.39, E -0.388 ± 0.49, I -0.848 ± 0.39, G -0.686 ± 0.25, W -0.615 ± 0.41, C -0.831 ± 0.23, S -0.205 ± 0.073, P -0.454 ± 0.38, R -0.876 ± 0.17, V -0.35 ± 0.15
K31: C -0.391 ± 0.095, R -0.113 ± 0.043, T 0.084 ± 0.096, F -0.397 ± 0.42, V -0.146 ± 0.061, Q -0.085 ± 0.07, A 0.031 ± 0.077, H -0.169 ± 0.078, S -0.063 ± 0.065, W -0.533 ± 0.1, D 0.018 ± 0.17
C43: V -0.249 ± 0.035, N -1.03 ± 0.19, S -0.79 ± 0.082, A -0.467 ± 0.099, Q -0.72 ± 0.11, K -0.613 ± 0.11, G -0.739 ± 0.12, E -1.02 ± 0.35, W -0.497 ± 0.097, M -0.686 ± 0.15, H -0.956 ± 0.15, T -0.971 ± 0.18, L -0.808 ± 0.083, R -0.831 ± 0.1, Y -0.662 ± 0.1
I41: E 0.131 ± 0.043, W -0.04 ± 0.045, C -0.062 ± 0.061, D -0.04 ± 0.12, M 0.131 ± 0.048, N 0.167 ± 0.068, T 0.091 ± 0.049, H 0.034 ± 0.061, Q 0.211 ± 0.06, R 0.218 ± 0.03, K 0.314 ± 0.05, F -0.103 ± 0.092, G 0.097 ± 0.041, Y -0.057 ± 0.076, L -0.011 ± 0.036, A 0.207 ± 0.04, V 0.01 ± 0.04, S 0.174 ± 0.033
N49: V -0.814 ± 0.076, L -0.924 ± 0.079, P -0.097 ± 0.068, S -0.498 ± 0.058, D -0.057 ± 0.046, Y -0.666 ± 0.11, R -0.789 ± 0.09, F -0.923 ± 0.12, E -0.292 ± 0.053, K -0.824 ± 0.13, C -0.356 ± 0.075, T -0.874 ± 0.076, M -0.846 ± 0.13, I -0.932 ± 0.23, G -0.735 ± 0.11, W -0.783 ± 0.13, Q -0.458 ± 0.055, H -0.355 ± 0.14
E40: W -0.511 ± 0.06, M -0.149 ± 0.073, P -0.794 ± 0.14, A 0.038 ± 0.033, S -0.114 ± 0.045, K -0.015 ± 0.055, H -0.236 ± 0.065, G -0.347 ± 0.036, R 0.042 ± 0.033, Q 0.005 ± 0.065, I -0.419 ± 0.099, D -0.566 ± 0.089, Y -0.33 ± 0.082, N -0.269 ± 0.11, V -0.215 ± 0.041, F -0.463 ± 0.17, T -0.12 ± 0.045
